Cell rounding assay on HeLa cells, TcdB1 10 pM, 6 h: reduction of cell-rounding data for one substance are collected here from US20240033354A1.

The experiment concerns the target TcdB1 holotoxin (recombinant full-length TcdB1, VPI10463 strain, expressed in Bacillus megaterium) (Clostridium difficile, VPI10463 strain) (UniProt P18177). As to the kind of experiment: cell-based or functional assay.

As to Fab fragment of bezlotoxumab, the cell rounding assay on HeLa cells, TcdB1 10 pM, 6 h: reduction of cell-rounding at 2 µM (% reduction of cell-rounding at 2 µM) came out at 40.
